Data as given in the supplement of paper PMC9732359.
± gives the uncertainty stated by the source.

Assay: protein stability index of a GFP-peptide fusion (yeast GPS) (PSI 1-4); higher = more stable; sorted into four equal gates, so the index is relative within each strain
Procedure, shortened: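 For each peptide, the protein stability index sums the read frequency in every gate after multiplying it by the gate number. Read frequencies came from plasmids that were PCR-amplified from each gate and Illumina-sequenced, with reads assigned to strains by barcodes. The gates were four equal bins of GFP/Cherry fluorescence ratio applied to mid-log yeast in leucine-free medium carrying a pooled library of tiled 17-residue yeast protein peptides fused downstream of GFP on a Cherry-expressing plasmid.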

Sequence	protein stability index (doa10∆)	protein stability index (pdr5∆)	protein stability index (san1∆)	protein stability index (ubr1∆)
MSGSFWTSTQRHHWQYT [SSN8]	2.07 ± 0.14	2.27 ± 0.15	1.97 ± 0.13	2.23 ± 0.099
MSNIVGIEYNRVTNTTS [RPC40]	3.36 ± 0.22	3.33 ± 0.13	2.73 ± 0.08	2.88 ± 0.096
MSQYQSTMKENKDLSEL [YIL149C/MLP2]	3 ± 0.16	3.12 ± 0.11	–	2.76 ± 0.092
MSRDAPIKADKDYSQIL [RPN5]	2.97 ± 0.1	2.44 ± 0.078	2.21 ± 0.13	2.67 ± 0.062
MSSEIAYSNTNTNTENE [SNF11]	–	–	2.64 ± 0.24	3.04 ± 0.2
MSSVQSKILSQAPSELE [RPS7B]	2.58 ± 0.08	2.72 ± 0.083	2.61 ± 0.098	2.04 ± 0.1
MSTELTVQSERAFQKQP [RPS11A]	3.13 ± 0.1	2.97 ± 0.099	2.98 ± 0.11	2.75 ± 0.076
MSVPAIAPRRKRLADGL [DIS3]	3.37 ± 0.095	3.18 ± 0.11	3.26 ± 0.078	3.11 ± 0.063
MTTFYKCVNCGHRWKEN [RPC11]	2.82 ± 0.16	2.66 ± 0.071	2.22 ± 0.15	2.74 ± 0.071
MTTTIGSPQMLANEERL [RGR1]	–	–	–	2.63 ± 0.25
MTVKLESITYQKIMILQ [RGR1]	2.16 ± 0.071	1.73 ± 0.068	1.6 ± 0.095	2.56 ± 0.076
MTVNDQPIEKNGDKMPL [YJR042W/NUP85]	2.73 ± 0.066	3.04 ± 0.068	2.45 ± 0.086	3.1 ± 0.042
MVLEATVLVIDNSEYSR [RPN10]	1.79 ± 0.097	1.72 ± 0.12	1.85 ± 0.12	2.2 ± 0.046
MVNTQQPIVTGTSVISM [PRE4]	2.1 ± 0.26	2.69 ± 0.23	1.95 ± 0.14	1.96 ± 0.2
MVPKRSTIITKAINQEL [YCS4]	1.39 ± 0.1	1.88 ± 0.062	1.58 ± 0.09	2.24 ± 0.068
NAEKTGKRQVLIRPSSK [RPS22A]	3.28 ± 0.16	3.26 ± 0.12	3.13 ± 0.14	3.03 ± 0.075
NAEKTGKRQVLLRPSSK [RPS22B]	3.14 ± 0.064	2.93 ± 0.055	3.24 ± 0.046	2.85 ± 0.038
NAGTDIVMEDHGVLQGT [MED1]	3.11 ± 0.072	3.06 ± 0.1	3.08 ± 0.085	3 ± 0.067
NAIQTEVYGINEESTNE [SIR4]	–	3.03 ± 0.3	2.9 ± 0.25	–
NAKRSHMMKRWGYQMVW [POP1]	1.97 ± 0.052	2.38 ± 0.056	2.69 ± 0.077	2.67 ± 0.055
NALWILVDLVSHFSPDI [ITC1]	1.55 ± 0.07	1.56 ± 0.079	1.67 ± 0.11	1.95 ± 0.051
NANTVFSERAAMFAALQ [SWI1]	2.31 ± 0.049	2.32 ± 0.043	2.4 ± 0.055	2.38 ± 0.032

Sequence	protein stability index (doa10∆)	protein stability index (pdr5∆)	protein stability index (san1∆)	protein stability index (ubr1∆)
NASDALKGRVVEVCLAD [RPS1B]	3.34 ± 0.069	3.33 ± 0.057	3.12 ± 0.051	3.03 ± 0.054
NASLTIEDEDEPFNAGI [SMC1]	3.29 ± 0.13	3.15 ± 0.12	3.39 ± 0.083	3.23 ± 0.085
NATVVDSFKYEPLAPGN [YLR335W/NUP2]	2.95 ± 0.057	3.02 ± 0.054	2.98 ± 0.053	2.94 ± 0.051
NCVNDVLEFCKDYEAKT [POP1]	3.2 ± 0.075	3.45 ± 0.083	3.14 ± 0.072	3.32 ± 0.051
NDAMAGGFTAYGGADYG [RPO21]	1.78 ± 0.083	1.91 ± 0.066	1.92 ± 0.1	1.86 ± 0.074
NDDKKTEPDKPAFSFNS [YJL041W/NSP1]	2.89 ± 0.047	3.12 ± 0.039	3.07 ± 0.032	3.202 ± 0.029
NDENDDEFYINVDKNLN [RPN14]	2.96 ± 0.19	2.72 ± 0.12	2.94 ± 0.11	3.05 ± 0.12
NDFNDLNIDWSTTGDNG [MED2]	2.84 ± 0.05	2.86 ± 0.051	2.84 ± 0.046	2.73 ± 0.042
NDGNNRTNNVPMIKAEE [NUT1]	3.05 ± 0.17	3.31 ± 0.14	2.65 ± 0.17	3.77 ± 0.16
NDIAGQPQALQKSGRPV [RPO21]	2.93 ± 0.087	3.16 ± 0.12	2.84 ± 0.16	2.96 ± 0.073
NDITNLQLSKTPLSIKI [SRB8]	2.58 ± 0.062	2.52 ± 0.069	2.81 ± 0.056	2.77 ± 0.051
NDKSEVLKVYSMINNSN [SRB8]	2.9 ± 0.077	2.91 ± 0.07	2.86 ± 0.075	2.63 ± 0.071
NDPEILKKIASIPNLFP [SWI1]	2.36 ± 0.049	2.19 ± 0.036	2.36 ± 0.058	2.53 ± 0.035
NDWQMLEMLKPCVEDGF [RPB2]	2.79 ± 0.09	3.22 ± 0.21	3.06 ± 0.12	2.68 ± 0.099
NEETFTVPELEIPTQIY [ARP9]	2.7 ± 0.065	2.77 ± 0.059	2.48 ± 0.064	2.92 ± 0.063
NEIIRSLSDEVMRNEIR [SIR4]	2.64 ± 0.058	2.1 ± 0.048	2.52 ± 0.068	2.39 ± 0.049
NEKMQLLKDIFANNLKS [SIR4]	2.28 ± 0.048	2.41 ± 0.051	1.95 ± 0.083	2.19 ± 0.048
NELLLPSELNQLKMVNE [RPC82]	3.14 ± 0.12	2.94 ± 0.13	3.25 ± 0.13	–
NELTDAIALAVRLGEED [RPN1]	2.98 ± 0.096	3.27 ± 0.096	–	2.7 ± 0.095
NENDSQAIITERLVEFS [YIL149C/MLP2]	3.2 ± 0.095	3.15 ± 0.085	2.83 ± 0.087	2.87 ± 0.051
NENFRLVYDVKGRFAVH [RPS4A]	3.41 ± 0.14	2.55 ± 0.17	3.32 ± 0.12	3.25 ± 0.13
